Measured values from PMC3916536.

Tests used:
[1] = molecular target: HLA-A2/D76N β2m/NY-ESO-1(Y1V9) complex; assay: native MS; nano-ESI-MS, 10 μM protein, 100 mM ammonium acetate, pH 7, declustering potential 50 V, complexes with peptide I
[2] = molecular target: HLA-A2/WT β2m/NY-ESO-1(Y1V9) complex; assay: as above

Row | Substance | stoichiometry N [1] | stoichiometry N [2]
1 | HLA-A2/D76N β2m/NY-ESO-1(Y1V9) complex (from UniProt P61769 21-119) (peptide-MHC) | 2 | –
2 | HLA-A2/WT β2m/NY-ESO-1(Y1V9) complex (from UniProt P61769 21-119) (peptide-MHC) | – | 2
